Common to all, as to test: cell-based or functional assay
Experiment [1] has as its target S protein on pseudovirus of B.1.1.7 strain (hCoV-19/England/QEUH-F56F0F/2021) (SARS-CoV-2 B.1.1.7 strain).
The target in experiment [2] is S protein on pseudovirus of B.1.351 strain (SARS-CoV-2 B.1.351 strain).
Experiment [3] addresses S protein on pseudovirus of p.1 strain (SARS-CoV-2 p.1 strain).

This note sets out measurements from patent publication WO2021244601A1 (dated 2021).

B1: CA304 (antibody, V domains shown)
VH: EVQLQQWGAGLLKPSETLSLTCAVYGGSFSGYYWSWIRQPPGKGLEWIGEVNHSGSTNYNPSLKSRVTISVDTSKNQLSLKLNSVTAADTAVYYCARGNTMVRGVIIPFEYWDKGTLVTVSS
VL: DIVMTQTPLSLPVTLGQPASISCRSSQSLVHSDGNTYLNWFQQRPGQSPRRLIYKVSNRDSGVPDRFSGSGAGTDFTLKISRVEAEDVGVYYCTQATQFPFTFGPGTKVDIKR
Take B1: the results for the “IC50, pseudovirus neutralisation (method as 3.15)” value in experiment [1], in experiment [2] and in experiment [3] were 4.06 nM, 12.2 nM and 3.53 nM, respectively.

B2: CA555 (antibody, V domains shown)
VH: EVQLQQWGAGLLKPSETLSLTCAVYGGSFSGYYWSWIRQPPGKGLEWIGEVNHSGSTNYNPSLKSRVTISVDTSKNQLSLKLNSVTAADTAVYYCARGNTMVRGVIIPFEYWDKGTLVTVSS
VL: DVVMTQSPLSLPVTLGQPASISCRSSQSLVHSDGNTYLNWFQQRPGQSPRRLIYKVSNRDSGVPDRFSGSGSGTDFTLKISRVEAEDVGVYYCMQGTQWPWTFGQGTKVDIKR
Take B2: the “IC50, pseudovirus neutralisation (method as 3.15)” value stood at 3.17 nM in experiment [1], 13.9 nM in experiment [2] and 1.58 nM in experiment [3].
